The values that follow come from paper PMC6018003.

In test [1] the target is T1, H46R/H48Q/C146S Sod1 labeled with Alexa-546 at C57 (yeast).
T1 sequence (P00445 2-154 with H46R H48Q C146S, looked up): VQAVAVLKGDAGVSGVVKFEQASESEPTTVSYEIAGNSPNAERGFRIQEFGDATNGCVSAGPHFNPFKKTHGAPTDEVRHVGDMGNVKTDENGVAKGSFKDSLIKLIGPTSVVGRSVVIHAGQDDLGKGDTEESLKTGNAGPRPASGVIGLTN
The experiment in a line: other fluorescence titration; microplate, quenching of Alexa-546-labeled Sod1 on titration with Ccs1; Sod1 zinc bound and disulfide reduced (E, Zn-Sod1^SH); 20 mM Tris pH 7.5, 150 mM NaCl, 1 mM TCEP, 0.01% octyl glucoside and CHAPS.

For test [2] the target is unchanged. The description is as above. This is another data set of the same source.
Test [3] has the same target. The experiment in a line: other fluorescence titration; microplate, quenching of Alexa-546-labeled Sod1 on titration with Ccs1; Sod1 metal deficient and disulfide reduced (E, E-Sod1^SH); 20 mM Tris pH 7.5, 150 mM NaCl, 1 mM TCEP, 0.01% octyl glucoside and CHAPS.
For test [4] the target is unchanged. The description is as above. This is another data set of the same source.

B1: copper chaperone for Sod1 (Ccs1), full-length wild type (natural protein)
chain: GHMTTNDTYEATYAIPMHCENCVNDIKACLKNVPGINSLNFDIEQQIMSVESSVAPSTIINTLRNCGKDAIIRGAGKPNSSAVAILETFQKYTIDQKKDTAVRGLARIVQVGENKTLFDITVNGVPEAGNYHASIHEKGDVSKGVESTGKVWHKFDEPIECFNESDLGKNLYSGKTFLSAPLPTWQLIGRSFVISKSLNHPENEPSSVKDYSFLGVIARSAGVWENNKQVCACTGKTVWEERKDALANNIK
Consider B1, for which the Kd was 0.114 µM in test [1], 0.134 µM in test [2], 0.036 µM in test [3] and 0.034 µM in test [4].
